The target of one experiment is T1, 4H932-bN.
T1 chain: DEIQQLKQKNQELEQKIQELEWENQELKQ
In words: two-hybrid library CCNG1.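 Further: natural log of median RNA to DNA barcode read ratio; higher means stronger binding.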

In the next experiment the target is T2, 4H796-bN.
T2 chain: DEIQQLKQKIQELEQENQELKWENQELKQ
Kind of experiment: two-hybrid library CCNG1.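 Further: natural log of median RNA to DNA barcode read ratio; higher means stronger binding.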

In the next experiment the target is T3, 4H949-bN.
T3 chain: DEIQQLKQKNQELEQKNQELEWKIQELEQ
In words: two-hybrid library CCNG1.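 Further: natural log of median RNA to DNA barcode read ratio; higher means stronger binding.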

For another experiment, the target named is T4, 4H492-bA.
T4 chain: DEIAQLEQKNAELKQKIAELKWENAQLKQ
In words: two-hybrid library CCNG1.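 Further: natural log of median RNA to DNA barcode read ratio; higher means stronger binding.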

A further experiment addresses T5, 4H741-bA.
T5 chain: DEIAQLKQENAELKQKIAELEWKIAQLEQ
Kind of experiment: two-hybrid library CCNG1.

Another experiment deals with T6, 4H3165-AA.
T6 chain: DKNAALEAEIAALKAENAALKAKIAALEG
In words: two-hybrid library CCmax. The conditions noted are these: mean of both orientations.

The next experiment deals with T7, 4H891-AA.
T7 chain: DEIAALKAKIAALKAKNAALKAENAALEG
In words: two-hybrid library CCmax. The conditions noted are these: mean of both orientations.

The target of another experiment is T8, 4H570-AA.
T8 chain: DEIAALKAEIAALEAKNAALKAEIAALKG
Kind of experiment: two-hybrid library CCmax. The conditions noted are these: mean of both orientations.

A further experiment addresses T9, 4H745-AA.
T9 chain: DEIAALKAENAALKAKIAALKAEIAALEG
Kind of experiment: two-hybrid library CCmax. As to conditions: mean of both orientations.

Another experiment addresses T10, 4H3120-AA.
T10 chain: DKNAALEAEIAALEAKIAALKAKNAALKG
In words: two-hybrid library CCmax. As to conditions: mean of both orientations.

The target in a further experiment is T11, 4H485-AA.
T11 chain: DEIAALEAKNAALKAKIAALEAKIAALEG
Kind of experiment: two-hybrid library CCmax. The conditions noted are these: mean of both orientations.

The target of the next experiment is T12, 4H310-AA.
T12 chain: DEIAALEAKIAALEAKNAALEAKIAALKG
Kind of experiment: two-hybrid library CCmax. As to conditions: mean of both orientations.

In another experiment the target is T13, 4H2725-AA.
T13 chain: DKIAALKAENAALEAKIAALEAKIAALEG
Kind of experiment: two-hybrid library CCmax. The conditions noted are these: mean of both orientations.

In the next experiment the target is T14, 4H94-AA.
T14 chain: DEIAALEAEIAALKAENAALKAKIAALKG
Kind of experiment: two-hybrid library CCmax. The conditions noted are these: mean of both orientations.

For the next experiment, the target named is T15, 4H3590-AA.
T15 chain: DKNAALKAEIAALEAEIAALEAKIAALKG
Kind of experiment: two-hybrid library CCmax. The conditions noted are these: mean of both orientations.

In another experiment the target is T16, 4H909-AA.
T16 chain: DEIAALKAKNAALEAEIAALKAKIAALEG
In words: two-hybrid library CCmax. As to conditions: mean of both orientations.

The target of another experiment is T17, 4H3697-AA.
T17 chain: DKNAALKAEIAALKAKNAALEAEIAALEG
In words: two-hybrid library CCmax. The conditions noted are these: mean of both orientations.

A further experiment addresses T18, 4H3410-AA.
T18 chain: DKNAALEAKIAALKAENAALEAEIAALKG
In words: two-hybrid library CCmax. As to conditions: mean of both orientations.

Another experiment has as its target T19, 4H850-AA.
T19 chain: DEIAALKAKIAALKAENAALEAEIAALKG
Kind of experiment: two-hybrid library CCmax. The conditions noted are these: mean of both orientations.

In another experiment the target is T20, 4H710-AA.
T20 chain: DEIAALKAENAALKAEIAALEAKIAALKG
In words: two-hybrid library CCmax. As to conditions: mean of both orientations.

Another experiment addresses T21, 4H3395-AA.
T21 chain: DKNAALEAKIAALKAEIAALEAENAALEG
In words: two-hybrid library CCmax. As to conditions: mean of both orientations.

The target in the next experiment is T22, 4H2698-AA.
T22 chain: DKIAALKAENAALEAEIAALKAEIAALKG
Kind of experiment: two-hybrid library CCmax. The conditions noted are these: mean of both orientations.

The next experiment has as its target T23, 4H3381-AA.
T23 chain: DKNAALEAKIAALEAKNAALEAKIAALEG
Kind of experiment: two-hybrid library CCmax. The conditions noted are these: mean of both orientations.

The target in another experiment is T24, 4H3009-AA.
T24 chain: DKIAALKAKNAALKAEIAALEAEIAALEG
In words: two-hybrid library CCmax. The conditions noted are these: mean of both orientations.

The target in another experiment is T25, 4H3753-AA.
T25 chain: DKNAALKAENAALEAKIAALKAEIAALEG
Kind of experiment: two-hybrid library CCmax. The conditions noted are these: mean of both orientations.

Another experiment addresses T26, 4H2649-AA.
T26 chain: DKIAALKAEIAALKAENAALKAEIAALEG
Kind of experiment: two-hybrid library CCmax.

For the next experiment, the target named is T27, 4H2865-AA.
T27 chain: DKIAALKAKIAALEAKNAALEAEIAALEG
Kind of experiment: two-hybrid library CCmax. As to conditions: mean of both orientations.

For a further experiment, the target named is T28, 4H797-AA.
T28 chain: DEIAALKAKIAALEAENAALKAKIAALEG
In words: two-hybrid library CCmax. The conditions noted are these: mean of both orientations.

The target in the next experiment is T29, 4H3865-AA.
T29 chain: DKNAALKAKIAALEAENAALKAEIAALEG
Kind of experiment: two-hybrid library CCmax. As to conditions: mean of both orientations.

For another experiment, the target named is T30, 4H536-AA.
T30 chain: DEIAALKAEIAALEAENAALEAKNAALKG
In words: two-hybrid library CCmax. The conditions noted are these: mean of both orientations.

For a further experiment, the target named is T31, 4H3130-AA.
T31 chain: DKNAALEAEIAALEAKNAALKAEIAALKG
In words: two-hybrid library CCmax. The conditions noted are these: mean of both orientations.

The target of the next experiment is T32, 4H629-AA.
T32 chain: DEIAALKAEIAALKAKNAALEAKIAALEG
In words: two-hybrid library CCmax. The conditions noted are these: mean of both orientations.

Another experiment deals with T33, 4H3016-AA.
T33 chain: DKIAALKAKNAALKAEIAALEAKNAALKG
In words: two-hybrid library CCmax. As to conditions: mean of both orientations.

A further experiment concerns the target T34, 4H930-AA.
T34 chain: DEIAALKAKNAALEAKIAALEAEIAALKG
In words: two-hybrid library CCmax. As to conditions: mean of both orientations.

In a further experiment the target is T35, 4H458-AA.
T35 chain: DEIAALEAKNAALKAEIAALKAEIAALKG
Kind of experiment: two-hybrid library CCmax. The conditions noted are these: mean of both orientations.

This note sets out measurements from paper PMC10397247.

Turning to DEIQQLKQKIQELEQENQELKWENQELKQ [4H796-bN], the interaction score with 4H932-bN is 0.298; in the experiment with 4H796-bN, 1.8; with 4H949-bN, -0.619.

Turning to DEIAQLEQKNAELKQKIAELKWENAQLKQ [4H492-bA], the interaction score in the experiment with 4H492-bA is -0.566; with 4H741-bA it was -1.59.

As to DKIAALKAEIAALKAENAALKAEIAALEG [4H2649-AA], the interaction score in the experiment with 4H3165-AA is 1.07; in the experiment with 4H891-AA, -1.86; with 4H570-AA, 1.86; in the experiment with 4H745-AA, -0.16; with 4H3120-AA it was -1.41; with 4H485-AA, -1.19. The interaction score was -0.563 with 4H310-AA; 0.985 in the experiment with 4H2725-AA; 2.21 with 4H94-AA; -0.789 with 4H3590-AA; -1.6 with 4H909-AA; -1.81 with 4H3697-AA. Moreover, the interaction score in the experiment with 4H3410-AA is -0.287; with 4H850-AA, 1.99; with 4H710-AA it was -1.42; with 4H3395-AA, -1.27; in the experiment with 4H2698-AA, -1.14; in the experiment with 4H3381-AA it was -1.34. In addition, the interaction score with 4H3009-AA is -0.366; with 4H3753-AA, -1.64; with 4H2649-AA, 0.376; with 4H2865-AA, -1.38; with 4H797-AA, 0.345; with 4H3865-AA, -1.59. In addition, the interaction score in the experiment with 4H536-AA is 0.807; with 4H3130-AA, -0.528; in the experiment with 4H629-AA, -0.681; in the experiment with 4H3016-AA, -1.64; with 4H930-AA, -0.569; in the experiment with 4H458-AA, -1.33.
